Results published in patent publication US20240059799A1 (Pfizer, published 2024).

B1: p40TL1A-0033 (bispecific antibody, human IgG1, kappa)
chain 1: not shown
chain 2: QVQLVQSGAEVKKPGASVKVSCKASGYDYTYYGISWVRQAPGQGLEWMGWISTYNTGTHYAPSLQGRVTMTTDTSTSTAYMELRSLRSDDTAVYYCARESYYGSGAFRGGMDVWGQGTTVTVSSASTKGPSVFPLAPSSKSTSGGTAALGCLVKDYFPEPVTVSWNSGALTSGVHTFPAVLQSSGLYSLSSVVTVPSSSLGTQTYICNVNHKPSNTKVDKKVEPKSC
heavy: EVQLVQSGAEVKKPGESLKISCKGSGYSFTTYWLGWVRQMPGKGLDWIGIMSPVDSDIRYSPSFQGQVTMSVDKSITTAYLQWNSLKASDTAMYYCARRRPGQGYFDFWGQGTLVTVSSASTKGPSVFPLAPSSKSTSGGTAALGCLVKDYFPEPVTVSWNSGALTSGVHTFPAVLQSSGLYSLSSVVTVPSSSLGTQTYICNVNHKPSNTKVDKKVEPKSCDKTHTCPPCPAPEAAGAPSVFLFPPKPKDTLMISRTPEVTCVVVDVSHEDPEVKFNWYVDGVEVHNAKTKPREEQYNSTYRVVSVLTVLHQDWLNGKEYKCKVSNKALPAPIEKTISKAKGQPREPQVCTLPPSREEMTKNQVSLWCLVKGFYPSDIAVEWESNGQPENNYKTTPPVLDSDGSFFLYSKLTVDKSRWQQGNVFSCSVLHEALHSHYTQKSLSLSPGK
light: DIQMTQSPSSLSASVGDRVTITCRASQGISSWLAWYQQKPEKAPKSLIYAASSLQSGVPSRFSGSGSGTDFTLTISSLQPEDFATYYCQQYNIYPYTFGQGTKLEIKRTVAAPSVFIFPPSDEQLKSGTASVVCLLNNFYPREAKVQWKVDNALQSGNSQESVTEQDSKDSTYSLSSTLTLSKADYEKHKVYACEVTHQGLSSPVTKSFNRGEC
notes: KiH modified-Fd bispecific: TL1A VL-CL-Fc (hole), TL1A mFd, p40 HC (knob), p40 LC; LS
B2: p40TL1A-0033 bispecific antibody (bispecific antibody, human IgG1, kappa)
heavy: EVQLVQSGAEVKKPGESLKISCKGSGYSFTTYWLGWVRQMPGKGLDWIGIMSPVDSDIRYSPSFQGQVTMSVDKSITTAYLQWNSLKASDTAMYYCARRRPGQGYFDFWGQGTLVTVSSASTKGPSVFPLAPSSKSTSGGTAALGCLVKDYFPEPVTVSWNSGALTSGVHTFPAVLQSSGLYSLSSVVTVPSSSLGTQTYICNVNHKPSNTKVDKKVEPKSCDKTHTCPPCPAPEAAGAPSVFLFPPKPKDTLMISRTPEVTCVVVDVSHEDPEVKFNWYVDGVEVHNAKTKPREEQYNSTYRVVSVLTVLHQDWLNGKEYKCKVSNKALPAPIEKTISKAKGQPREPQVCTLPPSREEMTKNQVSLWCLVKGFYPSDIAVEWESNGQPENNYKTTPPVLDSDGSFFLYSKLTVDKSRWQQGNVFSCSVLHEALHSHYTQKSLSLSPGK
light: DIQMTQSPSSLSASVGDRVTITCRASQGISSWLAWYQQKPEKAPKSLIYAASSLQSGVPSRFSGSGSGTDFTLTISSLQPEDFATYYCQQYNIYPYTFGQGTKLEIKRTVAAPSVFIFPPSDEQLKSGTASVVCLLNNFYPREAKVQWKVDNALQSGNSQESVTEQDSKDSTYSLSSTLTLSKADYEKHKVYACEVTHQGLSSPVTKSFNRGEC
chain 1: not shown
chain 2: QVQLVQSGAEVKKPGASVKVSCKASGYDYTYYGISWVRQAPGQGLEWMGWISTYNTGTHYAPSLQGRVTMTTDTSTSTAYMELRSLRSDDTAVYYCARESYYGSGAFRGGMDVWGQGTTVTVSSASTKGPSVFPLAPSSKSTSGGTAALGCLVKDYFPEPVTVSWNSGALTSGVHTFPAVLQSSGLYSLSSVVTVPSSSLGTQTYICNVNHKPSNTKVDKKVEPKSC
notes: Single cell KiH, modified Fd format; IgG1 effector-function-minimized Fc with LS mutations

Assays:
rabbit IL-12 = biological target: T1, rabbit IL-12 (rabbit); test: SPR, antibody captured by anti-human Fc, cytokine injected
T1 chain 1: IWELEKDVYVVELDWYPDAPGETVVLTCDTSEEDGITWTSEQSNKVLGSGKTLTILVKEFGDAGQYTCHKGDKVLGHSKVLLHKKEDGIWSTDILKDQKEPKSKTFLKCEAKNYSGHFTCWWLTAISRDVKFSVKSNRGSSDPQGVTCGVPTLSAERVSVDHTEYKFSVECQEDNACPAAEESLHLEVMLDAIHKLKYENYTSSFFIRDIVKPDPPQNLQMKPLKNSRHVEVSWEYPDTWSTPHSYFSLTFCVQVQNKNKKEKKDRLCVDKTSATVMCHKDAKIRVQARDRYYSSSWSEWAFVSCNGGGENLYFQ
T1 chain 2: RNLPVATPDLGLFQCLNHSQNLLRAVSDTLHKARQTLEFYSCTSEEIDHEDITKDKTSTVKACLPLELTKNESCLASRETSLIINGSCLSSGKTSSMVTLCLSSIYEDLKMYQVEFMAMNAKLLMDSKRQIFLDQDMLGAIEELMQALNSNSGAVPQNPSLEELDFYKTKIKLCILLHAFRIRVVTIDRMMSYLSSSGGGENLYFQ
Description: (§1) In order to determine binding to TL1A, kinetic assays were conducted at 37° C. using a collection rate of 10 Hz on a Biacore™ T200 instrument (GE Healthcare). […] For the analysis of the p40 binding arm, kinetic assays were conducted at 37° C. using a collection rate of 10 Hz on a Biacore™ 8 K+ instrument (GE Healthcare).

rat IL-23 = biological target: T2, rat IL-23 (rat, UniProt P43432 23-335; Q91Z84 22-196, limits assumed); test: as above
T2 chain 1: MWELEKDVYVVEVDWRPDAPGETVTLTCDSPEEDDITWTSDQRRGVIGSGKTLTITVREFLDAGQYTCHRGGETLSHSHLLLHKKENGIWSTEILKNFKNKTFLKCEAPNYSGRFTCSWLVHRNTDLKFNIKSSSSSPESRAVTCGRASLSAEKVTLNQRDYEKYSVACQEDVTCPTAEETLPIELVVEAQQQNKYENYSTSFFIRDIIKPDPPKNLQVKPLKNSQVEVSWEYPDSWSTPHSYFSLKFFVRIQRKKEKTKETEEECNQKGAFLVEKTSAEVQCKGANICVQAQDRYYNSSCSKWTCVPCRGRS
T2 chain 2: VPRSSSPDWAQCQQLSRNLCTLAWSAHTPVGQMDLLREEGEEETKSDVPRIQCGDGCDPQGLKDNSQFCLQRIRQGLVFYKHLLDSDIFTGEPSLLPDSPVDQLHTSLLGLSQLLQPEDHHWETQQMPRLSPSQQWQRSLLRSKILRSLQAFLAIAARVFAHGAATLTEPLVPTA
Description: as §1

mouse IL-12 [1] = biological target: T3, mouse IL-12 (mouse, UniProt P43432 23-335; P43431 23-215); test: as above
T3 sequence 1: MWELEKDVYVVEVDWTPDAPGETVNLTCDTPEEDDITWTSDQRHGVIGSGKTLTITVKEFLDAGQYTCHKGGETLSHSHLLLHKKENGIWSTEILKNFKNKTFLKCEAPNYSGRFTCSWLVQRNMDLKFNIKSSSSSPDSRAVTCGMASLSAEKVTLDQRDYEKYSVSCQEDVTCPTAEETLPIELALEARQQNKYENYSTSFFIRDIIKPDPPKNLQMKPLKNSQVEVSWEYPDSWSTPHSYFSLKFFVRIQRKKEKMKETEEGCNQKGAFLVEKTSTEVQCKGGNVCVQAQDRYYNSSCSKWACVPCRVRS
T3 sequence 2: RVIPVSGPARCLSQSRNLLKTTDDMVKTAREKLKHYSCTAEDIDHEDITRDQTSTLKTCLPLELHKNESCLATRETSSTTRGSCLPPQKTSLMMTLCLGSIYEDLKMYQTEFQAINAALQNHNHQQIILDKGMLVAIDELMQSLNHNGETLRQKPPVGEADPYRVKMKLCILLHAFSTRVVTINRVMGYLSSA
Description: as §1

rat IL-12 [2] = biological target: T4, rat IL-12 (rat, UniProt P43432 23-335; Q9R103 23-215, limits assumed); test: as above
T4 chain 1: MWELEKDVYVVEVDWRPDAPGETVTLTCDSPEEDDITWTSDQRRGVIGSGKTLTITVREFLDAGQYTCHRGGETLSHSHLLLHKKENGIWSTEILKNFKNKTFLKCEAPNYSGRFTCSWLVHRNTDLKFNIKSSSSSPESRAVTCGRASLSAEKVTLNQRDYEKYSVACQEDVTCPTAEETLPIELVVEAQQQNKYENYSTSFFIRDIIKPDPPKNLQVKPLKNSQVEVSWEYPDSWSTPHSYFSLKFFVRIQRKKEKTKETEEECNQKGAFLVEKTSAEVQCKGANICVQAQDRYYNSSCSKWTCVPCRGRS
T4 chain 2: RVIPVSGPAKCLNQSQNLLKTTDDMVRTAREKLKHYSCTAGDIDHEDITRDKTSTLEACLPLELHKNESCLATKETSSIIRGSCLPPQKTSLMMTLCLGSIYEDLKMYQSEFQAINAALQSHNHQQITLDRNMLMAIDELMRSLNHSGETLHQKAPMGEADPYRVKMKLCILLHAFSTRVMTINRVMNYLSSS
Description: as §1

rabbit IL-23 = biological target: T5, rabbit IL-23 (rabbit); test: as above
T5 chain 1: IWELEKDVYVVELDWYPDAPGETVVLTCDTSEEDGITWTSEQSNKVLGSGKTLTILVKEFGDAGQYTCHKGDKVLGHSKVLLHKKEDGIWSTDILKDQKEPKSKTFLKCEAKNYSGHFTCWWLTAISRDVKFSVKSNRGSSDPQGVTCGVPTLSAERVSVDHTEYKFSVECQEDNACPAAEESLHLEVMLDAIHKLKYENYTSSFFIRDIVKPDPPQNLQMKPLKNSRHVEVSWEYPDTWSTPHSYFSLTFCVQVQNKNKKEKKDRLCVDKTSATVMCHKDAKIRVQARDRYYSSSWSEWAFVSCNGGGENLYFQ
T5 chain 2: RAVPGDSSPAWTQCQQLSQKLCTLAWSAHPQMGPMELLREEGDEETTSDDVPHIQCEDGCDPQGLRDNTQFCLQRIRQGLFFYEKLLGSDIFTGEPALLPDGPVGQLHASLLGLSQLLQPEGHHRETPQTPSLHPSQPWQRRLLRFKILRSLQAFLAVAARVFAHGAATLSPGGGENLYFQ
Description: as §1

mouse IL-23 = biological target: T6, mouse IL-23 (mouse, UniProt P43432 23-335; Q9EQ14 22-196); test: as above
T6 sequence 1: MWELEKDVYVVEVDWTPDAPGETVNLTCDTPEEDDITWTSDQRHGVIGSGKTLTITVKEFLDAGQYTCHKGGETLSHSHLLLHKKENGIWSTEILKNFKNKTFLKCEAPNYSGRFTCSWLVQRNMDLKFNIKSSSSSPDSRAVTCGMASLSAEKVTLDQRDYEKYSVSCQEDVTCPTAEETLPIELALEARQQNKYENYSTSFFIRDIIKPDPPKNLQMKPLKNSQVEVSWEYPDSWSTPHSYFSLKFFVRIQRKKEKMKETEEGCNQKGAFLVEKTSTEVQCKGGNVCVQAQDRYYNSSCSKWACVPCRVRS
T6 sequence 2: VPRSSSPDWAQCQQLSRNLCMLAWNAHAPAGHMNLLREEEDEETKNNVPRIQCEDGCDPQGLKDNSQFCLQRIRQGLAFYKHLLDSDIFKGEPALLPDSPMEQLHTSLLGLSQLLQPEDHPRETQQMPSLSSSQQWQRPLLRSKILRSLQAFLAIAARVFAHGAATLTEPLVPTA
Description: as §1

mouse IL-12 [3] = biological target: T7, mouse IL-12 (mouse, UniProt P43432 23-335; P43431 23-215); test: SPR, Biacore 8K+, 37 C; antibody captured by anti-human Fc, cytokine injected
T7 sequence 1: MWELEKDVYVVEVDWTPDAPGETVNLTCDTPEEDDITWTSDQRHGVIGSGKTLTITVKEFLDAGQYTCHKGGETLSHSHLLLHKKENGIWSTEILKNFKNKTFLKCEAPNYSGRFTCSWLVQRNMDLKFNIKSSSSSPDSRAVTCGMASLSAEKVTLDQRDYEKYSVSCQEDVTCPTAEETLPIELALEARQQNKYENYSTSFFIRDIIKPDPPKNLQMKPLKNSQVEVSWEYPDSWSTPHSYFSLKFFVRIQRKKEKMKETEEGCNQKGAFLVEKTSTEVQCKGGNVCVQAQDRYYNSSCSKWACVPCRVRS
T7 sequence 2: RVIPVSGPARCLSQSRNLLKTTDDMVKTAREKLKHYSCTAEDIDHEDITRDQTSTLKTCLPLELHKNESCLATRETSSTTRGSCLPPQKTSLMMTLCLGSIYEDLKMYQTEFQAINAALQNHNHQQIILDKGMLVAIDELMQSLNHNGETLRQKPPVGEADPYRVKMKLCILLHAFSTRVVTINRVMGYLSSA
Description: as §1

rat IL-12 [4] = biological target: T8, rat IL-12 (rat, UniProt P43432 23-335; Q9R103 23-215, limits assumed); test: as above
T8 chain 1: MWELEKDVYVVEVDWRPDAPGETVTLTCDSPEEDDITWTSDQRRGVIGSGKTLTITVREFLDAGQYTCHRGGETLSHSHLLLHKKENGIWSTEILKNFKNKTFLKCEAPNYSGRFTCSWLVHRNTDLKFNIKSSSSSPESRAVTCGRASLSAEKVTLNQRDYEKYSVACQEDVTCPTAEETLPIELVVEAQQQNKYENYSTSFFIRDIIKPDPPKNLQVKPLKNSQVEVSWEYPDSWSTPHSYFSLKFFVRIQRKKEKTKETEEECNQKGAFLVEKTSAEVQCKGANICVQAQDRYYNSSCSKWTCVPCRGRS
T8 chain 2: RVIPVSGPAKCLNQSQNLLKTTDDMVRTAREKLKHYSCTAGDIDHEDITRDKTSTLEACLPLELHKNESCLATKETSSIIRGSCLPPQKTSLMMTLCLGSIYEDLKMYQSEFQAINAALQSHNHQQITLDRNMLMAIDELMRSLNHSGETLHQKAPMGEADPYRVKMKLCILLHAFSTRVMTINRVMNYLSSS
Description: as §1

recombinant rat TL1A = biological target: T9, recombinant rat TL1A (rat, UniProt Q8K3Y7 76-252); test: SPR, Biacore T200, 37 C; biotinylated TL1A captured on Biotin CAPture chip, antibody injected; KD value is approximate
T9 sequence: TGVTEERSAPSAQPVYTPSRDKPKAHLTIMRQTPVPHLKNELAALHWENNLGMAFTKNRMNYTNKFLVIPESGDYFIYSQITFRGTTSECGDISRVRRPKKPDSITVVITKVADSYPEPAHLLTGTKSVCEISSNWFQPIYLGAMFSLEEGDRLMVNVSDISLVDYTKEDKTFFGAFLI
Description: as §1

Binder | binding result (rabbit IL-12) | binding result (rat IL-23) | binding result (mouse IL-12 [1]) | binding result (rat IL-12 [2]) | binding result (rabbit IL-23) | binding result (mouse IL-23) | binding result (mouse IL-12 [3]) | binding result (rat IL-12 [4]) | Kd (recombinant rat TL1A)
B1 | no binding (tested: 200 nM) | no binding (tested: 200 nM) | no binding (tested: 200 nM) | no binding (tested: 200 nM) | no binding (tested: 200 nM) | no binding (tested: 200 nM) | – | – | –
B2 | – | – | – | – | – | – | no binding (tested: 200 nM) | no binding (tested: 200 nM) | ~1080 nM
